This note sets out measurements from patent publication US7863432B2, “Nucleic acid molecules encoding AKAP18 delta, a splice variant of a protein kinase A anchor protein” (Forschungsverbund Berlin e.V., priority 2002, dated 2011).

The target of this assay is T1, interaction between AKAP18δ and RIIα (Homo sapiens, UniProt P13861).
T1 construct: expressed in transfected cells; host or cells: HEK293
The experiment in a line: FRET measurement of AKAP18δ-CFP / RIIα-YFP interaction in co-transfected HEK293 cells. It is filed as cell-based. The conditions noted are these: 100 μM. The procedure:
The interaction of the expressed fusion proteins AKAP18δ-CFP and RIIα-YFP was measured in the HEK293 cells using the fluorescence resonance energy transfer (FRET) technology (schematic diagram in FIG. 3). The FRET signals result from an energy transfer from CFP to YFP, which is only possible when the two proteins are in close proximity to each other (<10 nm). Such close proximity of CFP and YFP is achieved only when AKAP186 directly binds the RIIα subunit. In this event, a FRET can be detected. […] A continuous decrease of the FRET signal during measurement indicates inhibition of the interaction between AKAP18δ and RIIα.
HEK293 cells (GBF, Brunswick) were cultured on polylysine-coated 30 mm cover glasses with 10% fetal calf serum (FCS) in Dulbecco's Minimal Eagle medium (DMEM) until a confluence of 40-60% was reached. […]
HEK293 cells were transiently co-transfected with the plasmids encoding RIIα-YFP and AKAP18δ-CFP. […] Fluorescence was excited at a wavelength of 425 nm for CFP and 488 nm for YFP. The emitted fluorescence was measured at a wavelength of 480/30 nm for CFP and 535/26 nm for YFP. The FRET of CFP to YFP was determined by excitation of CFP at a wavelength of 425 nm and measurement of the emission of YFP at a wavelength of 535/26 nm. Non-specific background fluorescence was determined in a region with no cells and subtracted. […]

T1 sequence (P13861 whole entry): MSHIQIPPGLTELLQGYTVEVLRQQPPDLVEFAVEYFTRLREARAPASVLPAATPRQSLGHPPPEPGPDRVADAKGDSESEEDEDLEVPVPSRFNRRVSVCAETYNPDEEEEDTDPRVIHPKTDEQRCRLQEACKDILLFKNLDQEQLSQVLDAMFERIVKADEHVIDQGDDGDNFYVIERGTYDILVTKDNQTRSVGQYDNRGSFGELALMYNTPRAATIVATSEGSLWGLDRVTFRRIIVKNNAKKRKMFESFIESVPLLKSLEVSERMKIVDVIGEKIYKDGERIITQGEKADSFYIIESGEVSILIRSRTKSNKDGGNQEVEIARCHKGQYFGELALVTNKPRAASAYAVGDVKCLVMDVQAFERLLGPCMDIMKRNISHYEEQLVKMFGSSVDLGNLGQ

Turning to “S-Ht31: membrane-permeable peptide; sequence of the RII binding domain of AKAP Ht31, coupled to a stearate residue on the N terminus”, the “mean value of the 535/480 ratio after addition of peptide” value (HEK293 cells, ratio >0.6 taken as positive FRET signal) is “about 0.35”. The “decrease of the 535/480 nm ratio (FRET signal)” value (within 80 min, HEK293 cells co-expressing AKAP18δ-CFP and RIIα-YFP, ratio before addition about 1.3) was “more than 50%”.
